Data on one protein can be found in paper PMC7176140, “Thermal stability analyses of human PERIOD-2 C-terminal domain using dynamic light scattering and circular dichroism” (PLoS ONE, 2020).

The data set concerns the molecule itself. The data set is described as follows: SEC; analytical Superdex 200 Increase 10/300 GL; hPER2c dimer fraction treated with 20mM DTT for 36hrs; buffer 20mM Tris-base pH7.5, 50mM NaCl, 20mM DTT; calibrated with molecular weight standards.

B1: human PERIOD-2 C-terminal domain (recombinant hPER2c, residues 1130 to 1252) (domain or fragment, UniProt O15055 1130-1252, looked up)
chain: CVLQDPIWLLMADADSSVMMTYQLPSRNLEAVLKEDREKLKLLQKLQPRFTESQKQELREVHQWMQTGGLPAAIDVAECVYCENKEKGNICIPYEEDIPSLGLSEVSDTKEDENGSPLNHRIE
notes: C-terminal domain of human PER2 (PERIOD-2), residues 1130 to 1252; Elutes from SEC as an aggregated form, 40mer, 20mer and dimer; The authors conclude that disulfide bonds stabilise the dimer; No tag removal is described; also called human PER2c; not shown: His tag (from the vector pCold I)
As for B1, the “stoichiometry N” value stood at 6.
